Experimental findings from paper PMC9456337 are described below.

In experiment [1] the target is thiocyanate dehydrogenase (TcDH) from Thioalkalivibrio paradoxus ARh 1 (Thioalkalivibrio paradoxus ARh 1). The experiment in a line: ITC; aliquots (2.6 µL) of CytC552 injected into a 0.2-mL cell with 9.3 µM TcDH; 25 °C; 25 mM borate buffer, pH 9.5; fitted assuming either one or two binding sites of CytC552 in the TcDH dimer.
Experiment [2] shares this target.
Experiment [3] has as its target recombinant cytochrome c552 (CytC552) from Thioalkalivibrio paradoxus (Thioalkalivibrio paradoxus ARh 1). Put plainly: NMR titration; oxidized 13C/15N-labelled CytC552 titrated with TcDH; intensity of the 1H signal of the heme HAB atom fitted with the Morrison equation; 1H/15N-HSQC chemical shift perturbation at saturating TcDH; slow exchange; 50 mM sodium phosphate, pH 7.0, 303 K.

In general, Kd refers to the constant that tells how readily two partners part at equilibrium. As usually defined, the stoichiometry N is the number of molecules, sites or subunits per partner or assembly.

In experiment [1], “recombinant cytochrome c552 (CytC552) from Thioalkalivibrio paradoxus (natural protein)” gave a Kd of 1800 nM. The substance also came in with a specific activity of TcDH in thiocyanate oxidation with CytC552 as electron acceptor, pH optimum 9.5 in experiment [2] of 7.3 µmol/min/mg.
For “thiocyanate dehydrogenase (TcDH) from Thioalkalivibrio paradoxus ARh 1 (enzyme)”, in experiment [3], the Kd was 2000 nM and the stoichiometry N turned out to be 1.
